Square brackets hold non-standard residues; d marks the D form. Oic = O=C(O)[C@@H]1C[C@@H]2CCCC[C@@H]2N1; 1Nal = N[C@@H](Cc1cccc2ccccc12)C(=O)O; 2Nal = N[C@@H](Cc1ccc2ccccc2c1)C(=O)O; d1Nal = N[C@H](Cc1cccc2ccccc12)C(=O)O; Tic = O=C(O)[C@@H]1Cc2ccccc2CN1; dTic = O=C(O)[C@H]1Cc2ccccc2CN1; dOrn = NCCC[C@@H](N)C(=O)O; Orn = NCCC[C@H](N)C(=O)O; Dab = NCC[C@H](N)C(=O)O; Abu = CC[C@H](N)C(=O)O
These substances were tested against chemokine receptor CXCR7 (RDC1) (UniProt P25106) (assay: cell-based or functional assay).
Sequence of chemokine receptor CXCR7 (RDC1) (P25106 whole entry): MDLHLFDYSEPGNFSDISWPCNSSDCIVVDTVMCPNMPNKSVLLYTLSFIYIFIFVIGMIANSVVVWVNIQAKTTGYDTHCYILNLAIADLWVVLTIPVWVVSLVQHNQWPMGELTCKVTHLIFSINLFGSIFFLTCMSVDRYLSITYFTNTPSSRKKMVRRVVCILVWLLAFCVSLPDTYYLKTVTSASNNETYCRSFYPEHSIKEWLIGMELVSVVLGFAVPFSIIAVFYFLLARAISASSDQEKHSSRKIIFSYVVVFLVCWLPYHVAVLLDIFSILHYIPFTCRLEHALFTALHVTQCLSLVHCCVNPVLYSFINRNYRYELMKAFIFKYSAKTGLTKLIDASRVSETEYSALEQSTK
cyclo(W[dF]W[Dab][dP][Tic]) was tested, and the β-Arrestin EC50 was 12.6 nM. With cyclo(I[dR]IR[dP][Tic]) the β-Arrestin EC50 was 34.3 nM. With cyclo(R[dF]WR[dP][Tic]) the β-Arrestin EC50 was 12.8 nM. For cyclo(F[dF]WR[dP][Tic]), the β-Arrestin EC50 was 22.5 nM. cyclo(I[dH]WR[dP][Tic]) gave a β-Arrestin EC50 of 70.8 nM. In the case of “cyclo(-1Nal-^DArg-Ile-Arg-^DPro-Azt-) (peptide)”, the β-Arrestin EC50 is reported as 41.2 nM. Work on cyclo(W[dF]WR[dTic]P) yielded a β-Arrestin EC50 of 83.6 nM. “cyclo(-Trp-^DArg-Trp-Ile-^DPro-Azt-) (peptide)” showed a β-Arrestin EC50 of 208 nM. With “cyclo(-Trp-^DHis-Ile-Arg-^DPro-Azt-) (peptide)” the β-Arrestin EC50 was 344 nM. cyclo([Abu][dR]RW[dP][Tic]) showed a β-Arrestin EC50 of 97.5 nM. Work on cyclo(H[dF]WR[dP][Tic]) yielded a β-Arrestin EC50 of 32.1 nM. cyclo([2Nal][dF]WR[dP][Tic]) gave a β-Arrestin EC50 of 8.9 nM. For cyclo(W[dF]WH[dP][Tic]), the β-Arrestin EC50 was 18.3 nM. With “cyclo(-Trp-^DHis-Trp-Arg-^DPro-Azt-) (peptide)” the β-Arrestin EC50 was 342 nM. With cyclo(W[dR]WR[dP][Tic]) the β-Arrestin EC50 was 128 nM. With “cyclo(-Trp-^DPhe-Trp-Arg-^DPip-Pro-) (peptide)” the β-Arrestin EC50 was 78.7 nM. With cyclo(W[dR]HW[dP][Tic]) the β-Arrestin EC50 was 217 nM. With cyclo(W[dF]WR[dP][Oic]) the β-Arrestin EC50 was 0.8 nM. cyclo(A[dF]WR[dP][Tic]) showed a β-Arrestin EC50 of 163 nM. Work on “cyclo(-Trp-^DArg-Ile-Arg-^DPro-Azt-) (peptide)” yielded a β-Arrestin EC50 of 47.7 nM. For cyclo(W[dF][2Nal]R[dP][Tic]), the β-Arrestin EC50 was 16.9 nM. Work on cyclo(W[dF]FR[dP][Tic]) yielded a β-Arrestin EC50 of 75.7 nM. “cyclo(-Trp-^DThr-Tyr-Arg-^DPro-Azt-) (peptide)” gave a β-Arrestin EC50 of 148 nM. For cyclo(W[dF]WK[dP][Tic]), the β-Arrestin EC50 was 16.5 nM. “cyclo(-1Nal-^DArg-Trp-Arg-^DPro-Azt-) (peptide)” was tested, and the β-Arrestin EC50 was 146 nM. cyclo(R[dH]WR[dP][Tic]) gave a β-Arrestin EC50 of 144 nM. Substance “cyclo(-Trp-^DArg-Trp-Arg-^DPro-Azt-) (peptide)” has a β-Arrestin EC50 of 170 nM. In the case of “cyclo(-1Nal-^DHis-Tyr-Arg-^DPro-Azt-) (peptide)”, the β-Arrestin EC50 is reported as 44.4 nM. With cyclo(W[dH]WR[dP][Tic]) the β-Arrestin EC50 was 204 nM. In the case of “cyclo(-Trp-^DPhe-Trp-Arg-^DPro-Tiq-) (peptide)”, the β-Arrestin EC50 is reported as 0.4 nM. cyclo([1Nal][dH]IR[dP][Tic]) was tested, and the β-Arrestin EC50 was 347 nM. Work on “cyclo(-His(Me)-^DPhe-Trp-Arg-^DPro-Tic-) (peptide)” yielded a β-Arrestin EC50 of 32.5 nM. In the case of cyclo([1Nal][dR]WR[dP][Tic]), the β-Arrestin EC50 is reported as 280 nM. cyclo(W[dF]IR[dP][Tic]) showed a β-Arrestin EC50 of 148 nM. cyclo(W[dOrn]WR[dP][Tic]) gave a β-Arrestin EC50 of 111 nM. In the case of cyclo(Y[dF]WR[dP][Tic]), the β-Arrestin EC50 is reported as 11.5 nM. Substance “cyclo(-1Nal-^DHis-Ile-Arg-^DPro-Azt-) (peptide)” has a β-Arrestin EC50 of 85.7 nM. cyclo(W[dF]WY[dP][Tic]) was tested, and the β-Arrestin EC50 was 94.5 nM. Substance cyclo(H[dW]HR[dP][Tic]) has a β-Arrestin EC50 of 226 nM. cyclo(W[dR]HR[dP][Tic]) gave a β-Arrestin EC50 of 348 nM. cyclo(I[dW]HR[dP][Tic]) showed a β-Arrestin EC50 of 317 nM. With cyclo(W[dF]RR[dP][Tic]) the β-Arrestin EC50 was 178 nM. Work on cyclo(W[dF]W[Orn][dP][Tic]) yielded a β-Arrestin EC50 of 12.1 nM. cyclo([1Nal][dF]WR[dP][Tic]) was tested, and the β-Arrestin EC50 was 61.6 nM. With cyclo(R[dW]HR[dP][Tic]) the β-Arrestin EC50 was 234 nM. Work on cyclo(H[d1Nal]HW[dP][Tic]) yielded a β-Arrestin EC50 of 269 nM. With cyclo(W[dF]YR[dP][Tic]) the β-Arrestin EC50 was 326 nM. cyclo(W[dF]WR[dP][Tic]) showed a β-Arrestin EC50 of 4.8 nM. Substance cyclo(W[dI]WR[dP][Tic]) has a β-Arrestin EC50 of 63.4 nM. Work on cyclo(W[dW]WR[dP][Tic]) yielded a β-Arrestin EC50 of 64.9 nM. “cyclo(-Trp-^DPhe-Trp-Arg-^DPro-(4S)-Hyp(Bn)-) (peptide)” showed a β-Arrestin EC50 of 1.7 nM.

From patent US20130023483A1
